Results as given in patent publication US20120040403A1 (NANYANG TECHNOLOGICAL UNIVERSITY, published 2012).

Biological target: the molecule itself
Experiment: size-exclusion chromatography (Superdex 75)
Experimental: Gel filtration was performed at 4° C. using the AKTA FPLC system equipped with a Superdex 75 HR 16/60 column (Amersham Biosciences). The buffer used for gel filtration is comprised of 50 mM Tris-Cl (pH 8.0), 300 mM NaCl, 5% Glycerol, 1 mM DTT. Fractions containing the recombinant protein were concentrated using Amicon concentrator (Millipore) to a final concentration of ca. 5 mg/ml as measured using Bradford assay. Concentrated proteins were stored in −80° C. degree after flash-freeze using liquid nitrogen. Mutant proteins were expressed, purified and stored following the same procedure. The molecular weight and oligomeric state of the protein was estimated based on the standard curve generated by using the standard proteins that include albumin, ovalbumin, chemotrypsinogen, RNase A. The final yield of the recombinant protein was 12-15 mg per liter culture for the wild type the mutant enzyme.

B1: tDGC mutant R158A (enzyme)
chain: MGSSHHHHHHSSGLVPRGSHMKELEYMAYHDPLTGLPNRRYFFELGNRYLDLAKREGKKVFVLFVDLAGFKAINDTYGHLSGDEVLKTVSKRILDRVARSDVVARYGGDEFTILLYDMKEEYLKSLLERILSTFREPVRVENKHLSVTPNIGVARFPEDGENLEELLKVADMRMYKAKEMKVPYFSLS
notes: Expressed from pET28b(+) with a (His)6 tag; Found as a monomer in solution; also called R158A mutant; mutant tDGC
binding result: no binding
